Ends that are not written are not given here.
Biological target: T1, LZ-Y
T1 chain: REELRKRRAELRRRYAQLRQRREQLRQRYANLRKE
Test: QRET time-resolved luminescence

B1: EuLZ (leucine zipper peptide LZ, Eu-chelate labeled) (peptide)
chain: KDTLQAETDQLEDEKSALQTEIANLLKEKEKLEFIL
modifications: also: nonadentate Eu(III) chelate label, position not given here
Kd: 21 nM

— paper PMC11791991 (2024)
